Test results published in US11957737B2, “Methods of treating microbial infection and inflammation” (Colorado Seminary, Owner and Operator of University of …, priority 2017, dated 2024).

B1: LF: Lactoferrin (LF) is an 80 kDa glycoprotein that exists in mucosal secretions from exocrine glands and neutrophil granules (protein, UniProt P02788 20-710, looked up)
Lactotransferrin: GRRRSVQWCAVSQPEATKCFQWQRNMRKVRGPPVSCIKRDSPIQCIQAIAENRADAVTLDGGFIYEAGLAPYKLRPVAAEVYGTERQPRTHYYAVAVVKKGGSFQLNELQGLKSCHTGLRRTAGWNVPIGTLRPFLNWTGPPEPIEAAVARFFSASCVPGADKGQFPNLCRLCAGTGENKCAFSSQEPYFSYSGAFKCLRDGAGDVAFIRESTVFEDLSDEAERDEYELLCPDNTRKPVDKFKDCHLARVPSHAVVARSVNGKEDAIWNLLRQAQEKFGKDKSPKFQLFGSPSGQKDLLFKDSAIGFSRVPPRIDSGLYLGSGYFTAIQNLRKSEEEVAARRARVVWCAVGEQELRKCNQWSGLSEGSVTCSSASTTEDCIALVLKGEADAMSLDGGYVYTAGKCGLVPVLAENYKSQQSSDPDPNCVDRPVEGYLAVAVVRRSDTSLTWNSVKGKKSCHTAVDRTAGWNIPMGLLFNQTGSCKFDEYFSQSCAPGSDPRSNLCALCIGDEQGENKCVPNSNERYYGYTGAFRCLAENAGDVAFVKDVTVLQNTDGNNNEAWAKDLKLADFALLCLDGKRKPVTEARSCHLAMAPNHAVVSRMDKVERLKQVLLHQQAKFGRNGSDCPDKFCLFQSETKNLLFNDNTECLARLHGKTTYEKYLGPQYVAGITNLKKCSTSPLLEACEFLRK
B2: nitrated LF: LF nitrated with sodium peroxynitrite at ONOO-/Tyr molar ratios of 10/1 and 40/1 (protein, UniProt P02788 20-710, looked up)
Lactotransferrin: B1 Lactotransferrin
modifications: tyrosine nitration by peroxynitrite

Legend:
[1] = ferrous iron (Fe++) binding capacity of LF; details: following sodium peroxinitrite-induced nitration of the iron-containing form of the protein
Description: As noted above, LF binds ferrous iron (Fe++) and controls iron distribution throughout the body and its ability to bind to inflammatory and other cell membranes and impact the activities of these cells through its iron binding activities and other mechanisms. The inventors hypothesized that the antibacterial effect may be linked to the iron binding activity of LF and that this antibacterial effect may be disrupted by nitration.
However, sodium peroxinitrite caused changes that went far beyond the mere nitration of a few tyrosine residues to include destruction of tyrosine and tryptophan which at least in part were converted to unidentified reaction products. Nitration can occur as a consequence of the formation of reactive nitrogen species in the body and as a result of drug or chemical reactions, and/or environmental toxins in polluted air, water, or other routes of intake.

E. coli (ATCC 25922) = test: standard broth dilutions susceptibility test, read at 600 nm; assay type: cell-based
Experimental: The following methods were used to conduct the experiments described in Examples 1-3, below: The experiments were conducted using the standard broth dilutions susceptibility test (Jorgensen, J. H.; Turnidge, J. D., Susceptibility test methods: dilution and disk diffusion methods. In Manual of Clinical Microbiology, Eleventh Edition, American Society of Microbiology: 2015; pp 1253-73). Briefly, 1 μl of glycerol stock aliquot of E. coli (ATCC 25922) was inculcated into Tryptic Soya agar (TSA) (Sigma Aldrich 22091) plates and incubated at 37° C. for 24 hrs. Subsequently, 3-5 separate colonies were selected and transferred into 4 ml Tryptic Soya broth (TSB) (Sigma Aldrich 22092) and incubated at 37° C. for 24 hrs. After incubation, samples were diluted 4 ml into 50 ml TSB to make E. coli stock. 200 μl samples were then placed into wells of a 96-microwell plate. All samples were prepared in TSB, (Blank) using TSB, ERGO (OXIS International), LF (Sigma Aldrich) and NLF were diluted to 1 mg/ml. The nitration reaction was prepared following the method reported by Selzle et al (Determination of nitration degrees for the birch pollen allergen Bet v 1. Analytical and Bioanalytical Chemistry 2013, 405(27):8945-49). According to this procedure, 400 μl aliquots of 5.0 mg/ml (±5%) LF in aqueous solution were pipetted into glass vials. […] Using the plate reader (Tecan Infinite, M1000 PRO). […]

Molecule	iron-binding capacity of LF [1]	growth of E. coli (E. coli (ATCC 25922); LF 1 mg/ml or 2 mg/ml, ERGO 5 mM or 50 mM, compared to growth of E. coli without additions, FIGS. 1A and 1B)	inhibition of growth of E. coli by previously nitrated LF (E. coli (ATCC 25922); LF nitrated with sodium peroxynitrite, compared to native (non-nitrated) LF)
B1	remained intact	reduced the growth of E. coli	–
B2	–	–	did not inhibit the growth of E. coli as much as adding native (non-nitrated) LF
